B1: MBP-CUB1CUB2 domains of PCPE-2, WT [human] / bone morphogenetic protein-1 [human] (parent complex)
chain 1: QSPERPVFTCGGILTGESGFIGSEGFPGVYPPNSKCTWKITVPEGKVVVLNFRFIDLESDNLCRYDFVDVYNGHANGQRIGRFCGTFRPGALVSSGNKMMVQMISDANTAGNGFMAMFSAAEPNERGDQYCGGLLDRPSGSFKTPNWPDRDYPAGVTCVWHIVAPKNQLIELKFEKFDVERDNYCRYDYVAVFNGGEVNDARRIGKYCGDSPPAPIVSERNELLIQFLSDLSLTADGFIGHYIFRPK
chain 2: AATSRPERVWPDGVIPFVIGGNFTGSQRAVFRQAMRHWEKHTCVTFLERTDEDSYIVFTYRPCGCCSYVGRRGGGPQAISIGKNCDKFGIVVHELGHVVGFWHEHTRPDRDRHVSIVRENIQPGQEYNFLKMEPQEVESLGETYDFDSIMHYARNTFSRGIFLDTIVPKYEVNGVKPPIGQRTRLSKGDIAQARKLYKCPACGETLQDSTGNFSSPEYPNGYSAHMHCVWRISVTPGEKIILNFTSLDLYRSRLCWYDYVEVRDGFWRKAPLRGRFCGSKLPEPIVSTDSRLWVEFRSSSNWVGKGFFAVYEAICGGDVKKDYGHIQSPNYPDDYRPSKVCIWRIQVSEGFHVGLTFQSFEIERHDSCAYDYLEVRDGHSESSTLIGRYCGYEKPDDIKSTSSRLWLKFVSDGSINKAGFAVNFFKEVDECSRPNRGGCEQRCLNTLGSYKCSCDPGYELAPDKRRCEAACGGFLTKLNGSITSPGWPKEYPPNKNCIWQLVAPTQYRISLQFDFFETEGNDVCKYDFVEVRSGLTADSKLHGKFCGSEKPEVITSQYNNMRVEFKSDNTVSKKGFKAHFFSEKRPALQPPRGRPHQLKFRVQKRNRTPQ

Variants of B1 are the subject of this test. Description: SPR; 50 nM MBP-CUB1CUB2; immobilized BMP-1 (1302 and 1492 RU); parent: 100; read off a plot. In general terms: SPR reads the build-up and loss of mass on a sensor chip optically.
On to chain 1 F87A, for which the percent of parent was ~84 % binding / WT.

chain 1 R150A: the percent of parent is ~90 % binding / WT.

These data come from PMC10696041 (2023).
